This data set relates to Nc1ncnc2c1ncn2[C@@H]1O[C@H](COP(=O)(O)OP(=O)(O)OP(=O)(O)O)[C@@H](O)[C@H]1O. As to the kind of experiment: purified protein. To be noted: 25 mM MES-Tris pH 6.5, 4 mM MgSO4, 10% glycerol, 25 C.

The term Km denotes the concentration of substrate that gives half-maximal velocity.

For “E. hirae V1-ATPase (A3B3DF complex) (Enterococcus hirae ATCC 9790)”, the Km amounted to 400 µM.

The values above are taken from paper PMC3879392, “Mutant LV^476-7AA of A-subunit of Enterococcus hirae V1-ATPase: High affinity of A3B3 complex to DF axis and low ATPase activity” (SpringerPlus, 2013).
